Results published in publication PMC7060239 (2020).

T1: PHD finger of human UHRF1 (residues 299–366) (human, UniProt Q96T88 299-366)
T1 chain: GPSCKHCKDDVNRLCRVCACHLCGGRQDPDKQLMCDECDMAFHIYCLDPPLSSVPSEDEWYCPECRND

T2: human DNMT1 RFTS domain, residues 351–600 (human, UniProt P26358 351-600)
T2 chain: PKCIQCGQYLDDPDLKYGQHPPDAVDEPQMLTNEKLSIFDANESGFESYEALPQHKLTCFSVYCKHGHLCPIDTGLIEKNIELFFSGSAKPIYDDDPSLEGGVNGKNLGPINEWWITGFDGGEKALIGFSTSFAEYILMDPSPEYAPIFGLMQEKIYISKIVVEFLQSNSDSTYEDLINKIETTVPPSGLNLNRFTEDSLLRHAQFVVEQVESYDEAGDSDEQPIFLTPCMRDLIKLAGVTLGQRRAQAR

B1: PAF15_(2-30) unmodified (peptide)
chain: VRTKADSVPGTYRKVVAARAPRKVLGSST
modifications: unmodified (no ubiquitin); taken as wild-type K15/K24, since the text describes K15C/K24C only for preparing the ubiquitylated analogs

How the values were obtained:
[1] = target: T1, PHD finger of human UHRF1 (residues …); experiment: ITC
[2] = target: T2, human DNMT1 RFTS domain, residues …; experiment: ITC

Binder | Kd [1] [µM] | Kd [2] [µM]
VRTAADSVPG [hPAF15_(2-11)-K5A peptide] | 5.7 | 
B1 |  | 6
